{"source": "paper PMC9352680", "about": "“A comprehensive thermodynamic model for RNA binding by the Saccharomyces cerevisiae Pumilio protein PUF4”", "details_in_all_cases": "protein: recombinant; tags: C-terminal SNAP tag, Cy3B-labeled; N-terminal His tag removed with TEV; label: array RNA; single-stranded", "key": {"[1]": {"target": "T1, PUF4 RNA-binding domain (Pumilio homology domain) (Saccharomyces cerevisiae, UniProt P25339 537-888)", "T1 sequence": "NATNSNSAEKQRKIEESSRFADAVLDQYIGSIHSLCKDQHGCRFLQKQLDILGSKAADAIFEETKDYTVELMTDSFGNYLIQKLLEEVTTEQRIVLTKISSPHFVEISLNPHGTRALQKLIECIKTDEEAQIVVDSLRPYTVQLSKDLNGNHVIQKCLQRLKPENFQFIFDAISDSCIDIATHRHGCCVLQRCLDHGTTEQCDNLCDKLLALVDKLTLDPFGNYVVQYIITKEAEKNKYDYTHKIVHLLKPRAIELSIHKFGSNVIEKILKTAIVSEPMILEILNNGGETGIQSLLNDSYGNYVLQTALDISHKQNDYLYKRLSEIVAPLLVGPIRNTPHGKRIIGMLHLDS", "assay": "RNA-MaP; ddG 1.663; RNA-MaP: 20 mM Na-HEPES pH 7.4, 0.1% Tween-20, 5% glycerol, 0.1 mg/mL BSA, 2 mM DTT, low salt 0.75 mM MgCl2 + 30 mM KOAc (model data; high salt 2 mM MgCl2 + 100 mM KOAc), 25 C"}, "[2]": {"target": "T1, PUF4 RNA-binding domain (Pumilio …)", "assay": "RNA-MaP; ddG 0.243; RNA-MaP: 20 mM Na-HEPES pH 7.4, 0.1% Tween-20, 5% glycerol, 0.1 mg/mL BSA, 2 mM DTT, low salt 0.75 mM MgCl2 + 30 mM KOAc (model data; high salt 2 mM MgCl2 + 100 mM KOAc), 25 C"}, "[3]": {"target": "T1, PUF4 RNA-binding domain (Pumilio …)", "assay": "RNA-MaP; ddG 3.256; RNA-MaP: 20 mM Na-HEPES pH 7.4, 0.1% Tween-20, 5% glycerol, 0.1 mg/mL BSA, 2 mM DTT, low salt 0.75 mM MgCl2 + 30 mM KOAc (model data; high salt 2 mM MgCl2 + 100 mM KOAc), 25 C"}, "[4]": {"target": "T1, PUF4 RNA-binding domain (Pumilio …)", "assay": "RNA-MaP; ddG 3.923; RNA-MaP: 20 mM Na-HEPES pH 7.4, 0.1% Tween-20, 5% glycerol, 0.1 mg/mL BSA, 2 mM DTT, low salt 0.75 mM MgCl2 + 30 mM KOAc (model data; high salt 2 mM MgCl2 + 100 mM KOAc), 25 C"}, "[5]": {"target": "T1, PUF4 RNA-binding domain (Pumilio …)", "assay": "RNA-MaP; ddG 0.934; RNA-MaP: 20 mM Na-HEPES pH 7.4, 0.1% Tween-20, 5% glycerol, 0.1 mg/mL BSA, 2 mM DTT, low salt 0.75 mM MgCl2 + 30 mM KOAc (model data; high salt 2 mM MgCl2 + 100 mM KOAc), 25 C"}, "[6]": {"target": "T1, PUF4 RNA-binding domain (Pumilio …)", "assay": "RNA-MaP; ddG 3.533; RNA-MaP: 20 mM Na-HEPES pH 7.4, 0.1% Tween-20, 5% glycerol, 0.1 mg/mL BSA, 2 mM DTT, low salt 0.75 mM MgCl2 + 30 mM KOAc (model data; high salt 2 mM MgCl2 + 100 mM KOAc), 25 C"}, "[7]": {"target": "T1, PUF4 RNA-binding domain (Pumilio …)", "assay": "RNA-MaP; ddG 1.018; RNA-MaP: 20 mM Na-HEPES pH 7.4, 0.1% Tween-20, 5% glycerol, 0.1 mg/mL BSA, 2 mM DTT, low salt 0.75 mM MgCl2 + 30 mM KOAc (model data; high salt 2 mM MgCl2 + 100 mM KOAc), 25 C"}}, "data": [{"binder": "UCUCUUUGUAUAAAUCUCUU (ssRNA)", "note": "[S1a K3.1 T7A]", "values": [{"measurement": "Kd", "setting": "[1]", "value": "-9.96 ± 0.7 kcal/mol (dG=RTlnKd)"}]}, {"binder": "UCUCUUUGUAUAUUUCUCUU (ssRNA)", "note": "[S1a K3.1 A8T]", "values": [{"measurement": "Kd", "setting": "[2]", "value": "-11.4 ± 0.257 kcal/mol (dG=RTlnKd)"}]}, {"binder": "UCUCUUAGUAUAUAUCUCUU (ssRNA)", "note": "[S1a K3.1 T1A]", "values": [{"measurement": "Kd", "setting": "[3]", "value": "-8.36 ± 0.617 kcal/mol (dG=RTlnKd)"}]}, {"binder": "UCUCUUGGUAUAUAUCUCUU (ssRNA)", "note": "[S1a K3.1 T1G]", "values": [{"measurement": "Kd", "setting": "[4]", "value": "-7.7 ± 0.635 kcal/mol (dG=RTlnKd)"}]}, {"binder": "UCUCUUUGUAUAUCUCUCUU (ssRNA)", "note": "[S1a K3.1 A8C]", "values": [{"measurement": "Kd", "setting": "[5]", "value": "-10.7 ± 0.225 kcal/mol (dG=RTlnKd)"}]}, {"binder": "UCUCUUCGUAUAUAUCUCUU (ssRNA)", "note": "[S1a K3.1 T1C]", "values": [{"measurement": "Kd", "setting": "[6]", "value": "-8.09 ± 0.575 kcal/mol (dG=RTlnKd)"}]}, {"binder": "UCUCUUUGUAUAUGUCUCUU (ssRNA)", "note": "[S1a K3.1 A8G]", "values": [{"measurement": "Kd", "setting": "[7]", "value": "-10.6 ± 0.24 kcal/mol (dG=RTlnKd)"}]}]}
